Test results as given in doi:10.1101/2020.07.31.231746 (2020).

Biological target: WT ACE2(740)-Fc (human, UniProt Q9BYF1 18-740)
Assay: BLI

B1: HCoV-NL63 spike RBD (domain or fragment)
chain: QHTDINFTATASFGGSCYVCKPHQVNISLNGNTSVCVRTSHFSIRYIYNRVKSGSPGDSSWHIYLKSGTCPFSFSKLNNFQKFKTICFSTVEVPGSCNFPLEATWHYTSYTIVGALYVTWSEGNSITGVPYPVSGI
Q: B1 was tested. Which Kd did it give?
A: 22 nM
